From US20230029307A1 come the findings set out here.

Bounds are passed on as bounds.

In this test the target is rhVEGF165 (R&D Systems, Cat #293-VE-010) (human) (UniProt P15692). Description: cell-based or functional assay.
rhVEGF165 (R&D Systems, Cat #293-VE-010) (human), sequence (P15692 other isoform, or with tags, fused parts or gaps limits assumed): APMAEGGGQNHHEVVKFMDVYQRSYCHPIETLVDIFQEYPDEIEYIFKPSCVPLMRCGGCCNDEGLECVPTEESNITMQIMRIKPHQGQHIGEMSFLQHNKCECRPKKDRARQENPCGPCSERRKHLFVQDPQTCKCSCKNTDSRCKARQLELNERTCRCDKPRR

On to “Aflibercept (EYLEA) (from UniProt P17948 129-230; P35968 225-327) (Fc fusion)”, for which the maximal % inhibition of VEGF-stimulated BCEC proliferation is < 80%.
